We go through 3 proteins from patent US6476188.

For series [1], the target named is mouse PERIOD2 (mPER2), in vitro translated, 35S-methionine-labeled, O54943.
For series [2], the target named is phosvitin (Sigma #P-1253).
Series [3] has as its target mouse PERIOD1 (mPER1), in vitro translated, 35S-methionine-labeled, O35973.
The target of series [4] is dephosphorylated α-casein (Sigma #C-8032).
Series [5] has as its target PERIOD (PER) protein, Drosophila, expressed in S2 cells from hs-per, P07663.

Sequence of mouse PERIOD2 (mPER2), in vitro translated, 35S-methionine-labeled, O54943 (O54943 whole entry, looked up): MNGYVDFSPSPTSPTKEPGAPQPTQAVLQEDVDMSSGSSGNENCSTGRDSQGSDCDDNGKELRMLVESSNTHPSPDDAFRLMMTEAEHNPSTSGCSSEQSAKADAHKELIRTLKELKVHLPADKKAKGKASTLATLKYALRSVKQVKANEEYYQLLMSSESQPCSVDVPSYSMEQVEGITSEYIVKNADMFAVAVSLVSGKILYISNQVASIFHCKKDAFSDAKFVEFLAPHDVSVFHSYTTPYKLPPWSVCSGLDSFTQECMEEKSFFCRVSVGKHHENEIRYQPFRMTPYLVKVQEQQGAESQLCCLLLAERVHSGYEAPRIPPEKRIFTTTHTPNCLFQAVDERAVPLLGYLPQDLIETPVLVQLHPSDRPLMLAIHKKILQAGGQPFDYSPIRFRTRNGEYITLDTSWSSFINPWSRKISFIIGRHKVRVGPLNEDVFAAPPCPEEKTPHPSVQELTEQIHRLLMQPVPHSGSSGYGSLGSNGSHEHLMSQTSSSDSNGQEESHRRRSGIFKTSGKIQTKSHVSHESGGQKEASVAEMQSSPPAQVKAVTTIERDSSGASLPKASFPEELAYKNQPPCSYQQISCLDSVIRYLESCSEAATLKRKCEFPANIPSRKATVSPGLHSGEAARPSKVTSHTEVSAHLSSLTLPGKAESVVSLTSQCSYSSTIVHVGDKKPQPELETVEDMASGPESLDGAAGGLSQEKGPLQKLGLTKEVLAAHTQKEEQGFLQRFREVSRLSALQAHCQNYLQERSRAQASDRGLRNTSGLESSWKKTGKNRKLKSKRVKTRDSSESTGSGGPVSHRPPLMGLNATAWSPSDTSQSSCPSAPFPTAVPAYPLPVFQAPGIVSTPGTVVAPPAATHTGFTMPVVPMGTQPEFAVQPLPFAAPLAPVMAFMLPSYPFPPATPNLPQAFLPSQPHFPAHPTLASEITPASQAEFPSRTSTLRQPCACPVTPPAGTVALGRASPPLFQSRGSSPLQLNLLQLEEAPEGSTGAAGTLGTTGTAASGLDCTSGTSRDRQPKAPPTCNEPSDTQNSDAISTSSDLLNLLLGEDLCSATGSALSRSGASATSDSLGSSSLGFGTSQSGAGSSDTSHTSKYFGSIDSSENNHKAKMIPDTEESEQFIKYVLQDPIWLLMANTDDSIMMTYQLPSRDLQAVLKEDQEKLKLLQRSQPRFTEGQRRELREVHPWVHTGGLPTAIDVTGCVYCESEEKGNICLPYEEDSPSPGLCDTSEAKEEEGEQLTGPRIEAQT
Sequence of mouse PERIOD1 (mPER1), in vitro translated, 35S-methionine-labeled, O35973 (O35973 whole entry, looked up): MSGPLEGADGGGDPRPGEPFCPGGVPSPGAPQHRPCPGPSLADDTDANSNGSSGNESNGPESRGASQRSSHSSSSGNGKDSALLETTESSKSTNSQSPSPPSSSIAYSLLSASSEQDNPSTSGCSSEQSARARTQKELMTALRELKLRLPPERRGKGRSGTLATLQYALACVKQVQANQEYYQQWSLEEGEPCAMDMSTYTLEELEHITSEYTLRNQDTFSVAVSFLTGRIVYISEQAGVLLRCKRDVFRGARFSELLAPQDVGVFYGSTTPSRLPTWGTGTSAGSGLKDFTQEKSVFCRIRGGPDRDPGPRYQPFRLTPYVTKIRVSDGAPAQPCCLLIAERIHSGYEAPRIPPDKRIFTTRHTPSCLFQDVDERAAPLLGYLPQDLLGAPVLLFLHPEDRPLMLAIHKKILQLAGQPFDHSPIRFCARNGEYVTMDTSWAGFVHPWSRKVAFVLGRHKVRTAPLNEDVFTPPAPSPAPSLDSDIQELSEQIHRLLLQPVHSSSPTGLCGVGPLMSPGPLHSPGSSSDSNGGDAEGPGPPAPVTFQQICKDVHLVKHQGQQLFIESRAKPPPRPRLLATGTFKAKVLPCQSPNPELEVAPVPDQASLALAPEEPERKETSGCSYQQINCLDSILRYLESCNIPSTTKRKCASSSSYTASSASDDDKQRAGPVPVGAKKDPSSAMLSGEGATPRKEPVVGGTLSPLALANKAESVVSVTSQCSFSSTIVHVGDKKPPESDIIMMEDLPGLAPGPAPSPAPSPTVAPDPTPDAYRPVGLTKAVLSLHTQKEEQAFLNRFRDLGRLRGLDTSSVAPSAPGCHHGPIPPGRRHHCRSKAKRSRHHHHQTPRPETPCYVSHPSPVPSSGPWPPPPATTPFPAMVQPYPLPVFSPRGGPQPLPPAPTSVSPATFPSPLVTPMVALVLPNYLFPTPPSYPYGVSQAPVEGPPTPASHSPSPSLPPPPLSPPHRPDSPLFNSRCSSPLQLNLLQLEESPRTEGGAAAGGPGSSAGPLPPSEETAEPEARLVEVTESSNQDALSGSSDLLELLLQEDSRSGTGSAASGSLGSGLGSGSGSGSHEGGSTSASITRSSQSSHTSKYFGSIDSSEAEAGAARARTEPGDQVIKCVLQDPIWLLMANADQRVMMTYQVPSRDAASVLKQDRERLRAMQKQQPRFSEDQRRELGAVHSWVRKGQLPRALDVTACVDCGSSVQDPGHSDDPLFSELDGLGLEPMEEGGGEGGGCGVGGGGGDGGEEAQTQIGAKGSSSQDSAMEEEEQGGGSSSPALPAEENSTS

B1: recombinant tau mutant hamster CK1ε (Arg178Cys) with N-terminal S•Tag and His-Tag fusions, captured on S-protein agarose (protein)
chain: MELRVGNKYRLGRKIGSGSFGDIYLGANIASGEEVAIKLECVKTKHPQLHIESKFYKMMQGGVGIPSIKWCGAEGDYNVMVMELLGPSLEDLFNFCSRKFSLKTVLLLADQMISRIEYIHSKNFIHRDVKPDNFLMGLGKKGNLVYIIDFGLAKKYRDARTHQHIPYRENKNLTGTACYASINTHLGIEQSRRDDLESLGYVLMYFNLGSLPWQGLKAATKRQKYERISEKKMSTPIEVLCKGYPSEFSTYLNFCRSLRFDDKPDYSYLRQLFRNLFHRQGFSYDYVFDWNMLKFGAARNPEDVDRERREHEREERMGQLRGSATRALPPGPPTGATANRLRSAAEPVASTPASRIQQAGNTSPRAISRADRERKVSMRLHRGAPANVSSSDLTGRQEVSRISASQTSVPFDHLGK
In the case of B1, in series [1], the “affinity kinase assay, phosphorylation of bound substrate” value was “there is a clear attenuation in phosphorylation of mPER1 and mPER2 by the tau mutant enzyme as compared to wild type CK1ε”. In series [2], the Km result is listed as “a Km of 29.8 µM”, the Vmax result is “a Vmax of 52.5 µmoles/µg/5 minutes” and the “fold reduction in Vmax against wild-type” value is given as “the tau mutation causes an eight-fold reduction in the Vmax of CK1ε”. For the same protein, the “affinity kinase assay, phosphorylation of bound substrate” value in series [3] is “there is a clear attenuation in phosphorylation of mPER1 and mPER2 by the tau mutant enzyme as compared to wild type CK1ε”.

B2: recombinant wild-type hamster CK1ε with N-terminal S•Tag and His-Tag fusions, captured on S-protein agarose (protein)
chain: MELRVGNKYRLGRKIGSGSFGDIYLGANIASGEEVAIKLECVKTKHPQLHIESKFYKMMQGGVGIPSIKWCGAEGDYNVMVMELLGPSLEDLFNFCSRKFSLKTVLLLADQMISRIEYIHSKNFIHRDVKPDNFLMGLGKKGNLVYIIDFGLAKKYRDARTHQHIPYRENKNLTGTARYASINTHLGIEQSRRDDLESLGYVLMYFNLGSLPWQGLKAATKRQKYERISEKKMSTPIEVLCKGYPSEFSTYLNFCRSLRFDDKPDYSYLRQLFRNLFHRQGFSYDYVFDWNMLKFGAARNPEDVDRERREHEREERMGQLRGSATRALPPGPPTGATANRLRSAAEPVASTPASRIQQAGNTSPRAISRADRERKVSMRLHRGAPANVSSSDLTGRQEVSRISASQTSVPFDHLGK
With B2, the “affinity kinase assay, phosphorylation of bound substrate” value in series [1] is “this affinity kinase assay demonstrates that CK1ε phosphorylates mammalian PERIOD proteins”. In series [2], the “32P signal intensity of phosphorylated substrate, wild-type relative to tau enzyme” value was “The wild-type CK1ε kinase produces an 8-fold and 4-fold greater signal intensity, for phosvitin and α-casein respectively, relative to that produced by the tau enzyme”; the Km result is recorded as “the Km is 55.6 µM”; the Vmax result is “the Vmax is 400 µmoles/µg/5 minutes”. The “32P signal intensity of phosphorylated substrate, wild-type relative to tau enzyme” value in series [4] is “The wild-type CK1ε kinase produces an 8-fold and 4-fold greater signal intensity, for phosvitin and α-casein respectively, relative to that produced by the tau enzyme”. Also, in series [3], the “affinity kinase assay, phosphorylation of bound substrate” value is on record as “this affinity kinase assay demonstrates that CK1ε phosphorylates mammalian PERIOD proteins”.

B3: DOUBLETIME protein (DBT), Drosophila, in vitro translated from dbt cDNA P12, 35S-labeled (protein)
chain: MELRVGNKYRLGRKIGSGSFGDIYLGTTINTGEEVAIKLECIRTKHPQLHIESKFYKTMQGGIGIPRIIWCGSEGDYNVMVMELLGPSLEDLFNFCSRRFSLKTVLLLADQMISRIDYIHSRDFIHRDIKPDNFLMGLGKKGNLVYIIDFGLAKKFRDARSLKHIPYRENKNLTGTARYASINTHLGIEQSRRDDLESLGYVLMYFNLGALPWQGLKAANKRQKYERISEKKLSTSIVVLCKGFPSEFVNYLNFCRQMHFDQRPDYCHLRKLFRNLFHRLGFTYDYVFDWNLLKFGGPRNPQAIQQAQDGADGQAGHDAVAAAAAVAAAAAASSHQQQQHKVNAALGGGGGSRAQQQLQGGQTLAMLGGNGGGNGSQLIGGNGLNMDDSMAATNSSRPPYDTPERRPSIRMRQGGGGGGGGVGVGGMQSGGGGGGVGNAK
In the case of B3, the “phosphorylation of PER in vitro” value in series [5] is “the formation of a PER/DBT complex leads to DBT-dependent phosphorylation of PER in vitro”.
